Measurements: US20260250425A1 (UNIVERSITY OF CHICAGO, published 2026)
Numbering of substitutions follows the chain as printed. Numbers in names are those of the source.

T1: mouse FcγRIII (mouse, UniProt P08508 31-215)
T1 construct: Recombinant His-tagged protein
T1 sequence (looked up): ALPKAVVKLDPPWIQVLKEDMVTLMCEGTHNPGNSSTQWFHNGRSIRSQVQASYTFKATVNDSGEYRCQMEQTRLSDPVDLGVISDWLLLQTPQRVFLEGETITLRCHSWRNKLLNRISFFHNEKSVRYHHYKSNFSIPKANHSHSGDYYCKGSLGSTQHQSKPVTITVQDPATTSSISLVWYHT

T2: mouse FcγRIIB (mouse, UniProt P08101 30-210, limits assumed)
T2 construct: Recombinant His-tagged protein
T2 sequence (looked up): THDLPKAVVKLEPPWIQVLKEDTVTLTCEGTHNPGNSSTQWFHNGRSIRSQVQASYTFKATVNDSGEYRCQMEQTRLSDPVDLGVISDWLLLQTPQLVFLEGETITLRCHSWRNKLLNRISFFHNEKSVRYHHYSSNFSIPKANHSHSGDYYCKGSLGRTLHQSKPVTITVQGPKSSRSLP

T3: human FcγRIIA (H131) (human, UniProt P12318 34-218, limits assumed)
T3 construct: Recombinant His-tagged protein
T3 sequence (looked up): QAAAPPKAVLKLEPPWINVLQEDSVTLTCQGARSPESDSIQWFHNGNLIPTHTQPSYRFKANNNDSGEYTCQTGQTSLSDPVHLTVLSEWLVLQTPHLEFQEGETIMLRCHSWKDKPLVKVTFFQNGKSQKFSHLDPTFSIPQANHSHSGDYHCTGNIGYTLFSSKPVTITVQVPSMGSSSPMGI

T4: mouse FcγRI (mouse, UniProt P26151 25-297)
T4 construct: Recombinant His-tagged protein
T4 sequence (looked up): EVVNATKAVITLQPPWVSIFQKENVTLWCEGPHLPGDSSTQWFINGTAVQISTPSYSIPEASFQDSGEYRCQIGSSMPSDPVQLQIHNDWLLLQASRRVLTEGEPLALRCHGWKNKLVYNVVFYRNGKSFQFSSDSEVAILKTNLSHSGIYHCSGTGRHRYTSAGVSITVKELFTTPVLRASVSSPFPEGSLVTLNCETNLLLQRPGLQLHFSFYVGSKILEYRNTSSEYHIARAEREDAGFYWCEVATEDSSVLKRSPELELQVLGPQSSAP

T5: mouse FcγRIV (mouse, UniProt A0A0B4J1G0 21-203)
T5 construct: Recombinant His-tagged protein
T5 sequence: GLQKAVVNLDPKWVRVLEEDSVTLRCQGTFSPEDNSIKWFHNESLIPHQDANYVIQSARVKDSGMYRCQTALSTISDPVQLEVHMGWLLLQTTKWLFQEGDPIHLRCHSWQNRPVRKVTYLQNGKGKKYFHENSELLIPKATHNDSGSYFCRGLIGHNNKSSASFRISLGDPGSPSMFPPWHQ

T6: human FcγRIIB (human, UniProt P31994 43-217, limits assumed)
T6 construct: Recombinant His-tagged protein; also called FcγRIIB (human)
T6 sequence (looked up): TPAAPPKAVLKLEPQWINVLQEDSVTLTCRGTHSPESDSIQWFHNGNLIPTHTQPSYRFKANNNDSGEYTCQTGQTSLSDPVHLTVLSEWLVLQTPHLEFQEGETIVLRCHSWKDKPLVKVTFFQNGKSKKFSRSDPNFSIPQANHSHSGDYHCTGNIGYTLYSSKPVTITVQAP

T7: human FcγRIIA (R131) (human, UniProt P12318 34-218, limits assumed)
T7 construct: Recombinant His-tagged protein
T7 sequence (looked up): T3 sequence (looked up) with H134R

B1: 3F6-hIgG1HEK (antibody)
heavy: not shown
light: DIVLTQSPDSLAVSLGERATINCRASESVEYSGASLMQWYQHKPGQPPKLLIYAASNRESGVPDRFSGSGSGTDFTLTISPVQAEDVAMYFCQQSRKVPSTFGGGTKLEIKRTVAAPSVFIFPPSDEQLKSGTASVVCLLNNFYPREAKVQWKVDNALQSGNSQESVTEQDSKDSTYSLSSTLTLSKADYEKHKVYACEVTHQGLSSPVTKSFNRGEC
modifications: Asn297 N-glycans as made by HEK-293F cells (more G1F, G2F and sialic acid than the CHO product)
notes: also called 3F6-hIgG1HEK WT; 3F6-IgG1
B2: 3F6-hIgG1CHO (antibody)
heavy: not shown
light: B1 light
modifications: Asn297 N-glycans as made by CHO-DG44 cells (mainly G0F, less G1F and G2F)
notes: Humanized 3F6 human IgG1 produced in CHO-DG44 cells; also called 3F6-hIgG1CHO WT; CHO-produced antibody
B3: 3F6-hIgG1HEK-afu (antibody)
heavy: not shown
light: B1 light
modifications: Asn297 N-glycans low in fucose and galactose (HEK-293F cells grown with kifunensine)
notes: See m5; also called afucosylated 3F6-hIgG1HEK
B4: 3F6-hIgG1HEK-KA (antibody, name in EU numbering)
heavy: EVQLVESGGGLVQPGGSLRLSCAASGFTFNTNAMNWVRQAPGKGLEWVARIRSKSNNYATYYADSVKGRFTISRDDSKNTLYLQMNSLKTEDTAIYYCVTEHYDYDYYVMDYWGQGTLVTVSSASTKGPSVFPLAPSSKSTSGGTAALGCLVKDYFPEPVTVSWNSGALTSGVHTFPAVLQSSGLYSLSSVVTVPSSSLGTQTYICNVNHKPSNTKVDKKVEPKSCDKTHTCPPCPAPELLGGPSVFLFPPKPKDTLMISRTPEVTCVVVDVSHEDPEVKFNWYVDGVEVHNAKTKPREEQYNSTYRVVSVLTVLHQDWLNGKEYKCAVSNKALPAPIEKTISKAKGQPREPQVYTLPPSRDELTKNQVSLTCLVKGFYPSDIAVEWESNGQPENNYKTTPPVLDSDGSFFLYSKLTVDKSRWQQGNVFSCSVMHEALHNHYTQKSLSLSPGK
light: B1 light
notes: also called KA variant
B5: 3F6-hIgG1HEK-deGal (antibody)
heavy: not shown
light: B1 light
modifications: Asn297 N-glycans de-galactosylated with β1-4-galactosidase
notes: See m5
B6: 3F6-hIgG1CHO-deSia (antibody)
heavy: not shown
light: B1 light
modifications: Asn297 N-glycans de-sialylated with neuraminidase
notes: 3F6-hIgG1CHO after neuraminidase
B7: 3F6-hIgG1HEK-G2F (antibody)
heavy: not shown
light: B1 light
modifications: Asn297 N-glycan remodelled chemoenzymatically to homogeneous G2F
notes: See m5; also called 3F6-hIgGHEK-G2F
B8: 3F6-hIgG1HEK-G1F (antibody)
heavy: not shown
light: B1 light
modifications: Asn297 N-glycan remodelled chemoenzymatically to homogeneous G1F
notes: See m5; also called 3F6-hIgGHEK-G1F
B9: 3F6-hIgG1HEK-deSia (antibody)
heavy: not shown
light: B1 light
modifications: Asn297 N-glycans de-sialylated with neuraminidase
notes: See m5
B10: 3F6-hIgG1CHO-Gal (antibody)
heavy: not shown
light: B1 light
modifications: Asn297 N-glycans enzymatically galactosylated (β1,4GalT)
notes: 3F6-hIgG1CHO after enzymatic galactosylation; also called 3F6-IgG1CHO-Gal
B11: 3F6-hIgG1HEK-G0F (antibody)
heavy: not shown
light: B1 light
modifications: Asn297 N-glycan remodelled chemoenzymatically to homogeneous G0F
notes: See m5; also called 3F6-hIgGHEK-G0F
B12: 3F6-hIgG1CHO-G2F (antibody)
heavy: not shown
light: B1 light
modifications: Asn297 N-glycan remodelled chemoenzymatically to homogeneous G2F
notes: Endo-S2 deglycosylation and EndoS2-D184M transfer of G2F glycan; also called 3F6-hIgGCHO-G2F

These binders were tested against T8, human FcγRIIIA (V158) (human, UniProt P08637 17-208) (assay: ELISA, His-tagged FcγR captured by anti-His antibody).
T8 construct: Recombinant His-tagged protein
T8 sequence (P08637 17-208 F176V limits assumed): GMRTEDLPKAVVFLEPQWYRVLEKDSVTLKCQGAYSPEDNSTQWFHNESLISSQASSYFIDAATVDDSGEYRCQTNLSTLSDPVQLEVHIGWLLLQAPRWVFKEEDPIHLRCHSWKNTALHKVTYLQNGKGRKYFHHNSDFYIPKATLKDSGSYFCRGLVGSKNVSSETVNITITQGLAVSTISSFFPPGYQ

B1 and B2 are within 1.5-fold of each other in Ka: 2.31e+07 M⁻¹ for the first, 2.75e+07 M⁻¹ for the second.

Compared with B3, B4 is 4-fold lower in Ka: 5.63e+07 M⁻¹ for the first, 1.4e+07 M⁻¹ for the second.

The binders below were run against T9, human FcγRIA (human, UniProt P12314 16-288, limits assumed) in the same assay as above.
T9 construct: Recombinant His-tagged protein
T9 sequence (P12314 16-288 limits assumed): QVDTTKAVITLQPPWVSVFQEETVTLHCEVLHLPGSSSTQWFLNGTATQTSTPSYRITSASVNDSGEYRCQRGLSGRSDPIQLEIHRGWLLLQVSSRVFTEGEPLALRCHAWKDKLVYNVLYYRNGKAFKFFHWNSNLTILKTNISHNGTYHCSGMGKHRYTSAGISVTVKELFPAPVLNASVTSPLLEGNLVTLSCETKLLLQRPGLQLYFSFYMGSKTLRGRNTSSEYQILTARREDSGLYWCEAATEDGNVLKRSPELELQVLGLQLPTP

B1 and B2 are within 1.5-fold of each other in Ka: 7.88e+08 M⁻¹ for the first, 7.66e+08 M⁻¹ for the second.

B3 and B4 are within 1.5-fold of each other in Ka: 5.83e+08 M⁻¹ for the first, 7.86e+08 M⁻¹ for the second.

These binders were tested against T1, mouse FcγRIII in the same assay as above.

B1 and B2 are within 1.5-fold of each other in Ka: 1.69e+06 M⁻¹ for the first, 1.49e+06 M⁻¹ for the second.

B3 and B4 are within 1.5-fold of each other in Ka: 2.3e+06 M⁻¹ for the first, 2.96e+06 M⁻¹ for the second.

What follows are binders tested against T2, mouse FcγRIIB in the same assay as above.

B1 and B2 are within 1.5-fold of each other in Ka: 1.61e+06 M⁻¹ for the first, 1.53e+06 M⁻¹ for the second.

First: B3
Second: B4
The Ka of the first is 2.1-fold lower: 1.62e+06 M⁻¹ for the first, 3.35e+06 M⁻¹ for the second.

Each binder was assayed against T3, human FcγRIIA (H131) in the same assay as above.

Compared with B1, B2 is 1.5-fold higher in Ka: 1.13e+06 M⁻¹ for the first, 1.75e+06 M⁻¹ for the second.

B3 and B4 are within 1.5-fold of each other in Ka: 1.51e+06 M⁻¹ for the first, 1.23e+06 M⁻¹ for the second.

The binders below were run against T4, mouse FcγRI in the same assay as above.

B1 and B2 are within 1.5-fold of each other in Ka: 1.84e+08 M⁻¹ for the first, 1.77e+08 M⁻¹ for the second.

Compared with B3, B4 is 4.3-fold higher in Ka: 9.2e+07 M⁻¹ for the first, 3.97e+08 M⁻¹ for the second.

What follows are binders tested against T5, mouse FcγRIV in the same assay as above.

B1 and B2 are within 1.5-fold of each other in Ka: 1.35e+08 M⁻¹ for the first, 1.15e+08 M⁻¹ for the second.

B3 and B4 are within 1.5-fold of each other in Ka: 3.19e+08 M⁻¹ for the first, 2.66e+08 M⁻¹ for the second.

The binders below were run against T6, human FcγRIIB in the same assay as above.

First: B1
Second: B2
The Ka of the first is 1.8-fold lower: 925000 M⁻¹ for the first, 1.65e+06 M⁻¹ for the second.

Going from B3 to B4, the Ka rises from 179000 M⁻¹ to 1.18e+06 M⁻¹ (6.6-fold).

What follows are binders tested against T10, human FcγRIIIA (F158) (human, UniProt P08637 17-208) in the same assay as above.
T10 construct: Recombinant His-tagged protein
T10 sequence (P08637 17-208 limits assumed): as the sequence (P08637 17-208 F176V limits assumed) above, with V160F counted along it

First: B1
Second: B2
The Ka of the first is 1.6-fold lower: 1.97e+06 M⁻¹ for the first, 3.09e+06 M⁻¹ for the second.

Compared with B3, B4 is 6.1-fold lower in Ka: 9.2e+06 M⁻¹ for the first, 1.51e+06 M⁻¹ for the second.

These binders were tested against T7, human FcγRIIA (R131) in the same assay as above.

Compared with B1, B2 is 1.5-fold higher in Ka: 1.53e+06 M⁻¹ for the first, 2.36e+06 M⁻¹ for the second.

B3 and B4 are within 1.5-fold of each other in Ka: 1.82e+06 M⁻¹ for the first, 1.81e+06 M⁻¹ for the second.

What follows are binders tested against T11, mouse C1q (mouse, UniProt P98086 23-245; P14106 26-253; Q02105 30-246) (assay: ELISA, plate coated with BALB/c mouse serum (mouse C1q)).
T11 construct: Plates were coated with BALB/c mouse serum as the source of mouse C1q; also called mc1q
T11 sequence (P98086 23-245 limits assumed, chain 1 of 3): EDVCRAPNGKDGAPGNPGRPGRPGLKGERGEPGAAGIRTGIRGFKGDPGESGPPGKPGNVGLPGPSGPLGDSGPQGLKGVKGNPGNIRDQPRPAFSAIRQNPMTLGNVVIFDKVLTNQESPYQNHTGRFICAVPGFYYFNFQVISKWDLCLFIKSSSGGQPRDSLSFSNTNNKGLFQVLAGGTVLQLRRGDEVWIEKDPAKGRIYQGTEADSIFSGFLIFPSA
T11 sequence (P14106 26-253 limits assumed, chain 2 of 3): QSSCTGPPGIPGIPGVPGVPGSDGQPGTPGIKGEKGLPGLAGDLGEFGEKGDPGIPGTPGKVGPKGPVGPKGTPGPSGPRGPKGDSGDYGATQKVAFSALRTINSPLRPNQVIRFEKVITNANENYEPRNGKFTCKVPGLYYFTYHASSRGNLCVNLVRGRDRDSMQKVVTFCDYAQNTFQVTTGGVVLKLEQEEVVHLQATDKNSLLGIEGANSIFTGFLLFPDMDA
T11 sequence (Q02105 30-246 limits assumed, chain 3 of 3): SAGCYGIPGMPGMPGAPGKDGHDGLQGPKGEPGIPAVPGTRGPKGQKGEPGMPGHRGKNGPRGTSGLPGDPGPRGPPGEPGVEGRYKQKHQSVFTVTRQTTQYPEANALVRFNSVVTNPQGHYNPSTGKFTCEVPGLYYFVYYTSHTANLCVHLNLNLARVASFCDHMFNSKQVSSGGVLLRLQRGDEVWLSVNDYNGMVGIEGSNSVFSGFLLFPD

Compared with B1, B2 is 6.9-fold lower in Ka: 6.08e+07 M⁻¹ for the first, 8.87e+06 M⁻¹ for the second.

What follows are binders tested against T12, human C1q (human, UniProt P02745 23-245; P02746 28-253; P02747 29-245) (assay: ELISA, human C1q-coated plate).
T12 construct: Purified human C1q (CompTech); also called hc1q; hC1q
T12 sequence (P02745 23-245 limits assumed, chain 1 of 3): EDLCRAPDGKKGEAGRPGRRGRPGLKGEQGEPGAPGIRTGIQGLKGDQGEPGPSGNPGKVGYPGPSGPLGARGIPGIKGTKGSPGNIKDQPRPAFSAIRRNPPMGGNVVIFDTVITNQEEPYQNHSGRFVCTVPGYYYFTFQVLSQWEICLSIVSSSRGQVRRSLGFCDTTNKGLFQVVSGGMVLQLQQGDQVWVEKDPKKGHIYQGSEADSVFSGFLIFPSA
T12 sequence (P02746 28-253 limits assumed, chain 2 of 3): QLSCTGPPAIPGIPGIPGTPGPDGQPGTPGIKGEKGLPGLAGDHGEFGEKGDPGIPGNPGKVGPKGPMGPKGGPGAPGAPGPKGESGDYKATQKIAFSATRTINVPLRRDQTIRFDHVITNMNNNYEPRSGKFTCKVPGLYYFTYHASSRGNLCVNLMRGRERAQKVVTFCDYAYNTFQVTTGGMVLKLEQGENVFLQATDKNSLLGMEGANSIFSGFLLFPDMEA
T12 sequence (P02747 29-245 limits assumed, chain 3 of 3): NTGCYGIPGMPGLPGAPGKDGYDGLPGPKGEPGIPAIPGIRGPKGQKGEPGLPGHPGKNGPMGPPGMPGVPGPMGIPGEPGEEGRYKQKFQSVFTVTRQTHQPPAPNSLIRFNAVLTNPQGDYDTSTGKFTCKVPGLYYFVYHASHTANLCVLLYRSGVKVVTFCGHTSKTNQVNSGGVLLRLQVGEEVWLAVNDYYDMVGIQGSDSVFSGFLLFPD

First: B1
Second: B2
The Ka of the first is 3.8-fold higher: 1.87e+07 M⁻¹ for the first, 4.91e+06 M⁻¹ for the second.

B5 and B6 are within 1.5-fold of each other in Ka: 4e+06 M⁻¹ for the first, 5.5e+06 M⁻¹ for the second.

B7 and B8 are within 1.5-fold of each other in Ka: 5.5e+07 M⁻¹ for the first, 3.83e+07 M⁻¹ for the second.

First: B9
Second: B10
The Ka of the first is 1.6-fold higher: 3.37e+07 M⁻¹ for the first, 2.17e+07 M⁻¹ for the second.

First: B11
Second: B12
The Ka of the first is 7.4-fold lower: 6.94e+06 M⁻¹ for the first, 5.11e+07 M⁻¹ for the second.

Biological target: T12, human C1q
Test: ELISA, human C1q-coated plate
Remark: another data set of the same source

Compared with B1, B2 is 3.8-fold lower in Ka: 1.87e+07 M⁻¹ for the first, 4.91e+06 M⁻¹ for the second.

Going from B3 to B4, the Ka falls from 5.97e+06 M⁻¹ to 1.37e+06 M⁻¹ (4.4-fold).

Biological target: T11, mouse C1q
Test: ELISA, plate coated with BALB/c mouse serum (mouse C1q)
Remark: another data set of the same source

Going from B1 to B2, the Ka falls from 6.08e+07 M⁻¹ to 8.87e+06 M⁻¹ (6.9-fold).

First: B3
Second: B4
The Ka of the first is 2.1-fold higher: 2.79e+06 M⁻¹ for the first, 1.34e+06 M⁻¹ for the second.
